Experimental findings from PMC3977044 are described below.

Data set [1] has as its target Mos1 transposase D284A (with T216A), catalytically inactive mutant (Drosophila mauritiana). The experiment in a line: SEC.
Data set [2] has as its target Mos1 transposase R48Q/Q100R (with T216A), DNA binding deficient mutant (Drosophila mauritiana). Description: SEC. (Size exclusion chromatography separates by hydrodynamic size, large species first.)
Data set [3] concerns the target Mos1 transposase R48Q/Q100R D284A (with T216A), DNA binding and catalytically inactive mutant (Drosophila mauritiana). Description: SEC.
In data set [4] the target is T1, Mos1 transposase T216A (Drosophila mauritiana (mariner Mos1), UniProt Q7JQ07 1-345, T216A).
T1 sequence: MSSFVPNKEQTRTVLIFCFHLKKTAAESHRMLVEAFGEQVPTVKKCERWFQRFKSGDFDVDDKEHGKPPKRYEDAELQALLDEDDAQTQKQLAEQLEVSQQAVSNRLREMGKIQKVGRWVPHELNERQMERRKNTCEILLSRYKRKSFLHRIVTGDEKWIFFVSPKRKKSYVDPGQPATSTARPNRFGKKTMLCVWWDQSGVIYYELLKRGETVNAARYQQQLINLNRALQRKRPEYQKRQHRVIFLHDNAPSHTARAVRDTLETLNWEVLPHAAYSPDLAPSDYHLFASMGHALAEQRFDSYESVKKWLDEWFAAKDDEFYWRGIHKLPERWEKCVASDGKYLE
The experiment in a line: X-ray crystallography.

Data set [5] deals with T1, Mos1 transposase T216A. The experiment in a line: X-ray crystallography. The source holds these as a separate data set.
Data set [6] concerns the target T2, Mos1 transposase R48Q/Q100R (Drosophila mauritiana (mariner Mos1), UniProt Q7JQ07 1-345, R48Q;Q100R;T216A).
T2 sequence: T1 sequence with R48Q, Q100R
The experiment in a line: EMSA.

Substitutions are numbered along the chain they refer to. Where two headings read alike, the source gives them in different places.

In general, stoichiometry N refers to a count of units in the complex or per binding partner.

Consider “Mos1 transposase D284A (with T216A), catalytically inactive mutant (enzyme)”, for which the stoichiometry N in data set [1] is 2.
In data set [2], “Mos1 transposase R48Q/Q100R (with T216A), DNA binding deficient mutant (enzyme)” displayed a stoichiometry N of 2.
“Mos1 transposase R48Q/Q100R D284A (with T216A), DNA binding and catalytically inactive mutant (enzyme)” gave a stoichiometry N in data set [3] of 2.

B1: IRR duplex with 5-iodo-dU at T16 (dsDNA)
DNA 1: AAACGACATTTCATACTTGTACACCTGA
DNA 2: GGTGTACAAGTATGAAATGTCGTTT
modifications: 5-iodo-dU replacing T16 (NTS nucleotide 13 by structure numbering); 5' phosphate on NTS presumed
As to B1, the binding result in data set [4] is listed as “binds”.

B2: pre-cleaved IRR duplex (28 nt TS / 25 nt NTS) (dsDNA)
DNA 1: AAACGACATTTCATACTTGTACACCTGA
DNA 2: GGTGTACAAGTATGAAATGTCGTTT
modifications: 5' phosphate on NTS
Consider B2, for which the binding result in data set [5] was “binds”.

B3: 100 bp IRR plus flank NTS cleavage substrate (dsDNA)
DNA 1: ACGGGCTCCAGTCGGTGAATATAGAAACTATCAGGTGTACAAGTATGAAATGTCGTTTTTTTTAAATCAAAAAACACGTTAAATTTTGTGGAAAAAGAAA
DNA 2: TTTCTTTTTCCACAAAATTTAACGTGTTTTTTGATTTAAAAAAAACGACATTTCATACTTGTACACCTGATAGTTTCTATATTCACCGACTGGAGCCCGT
Regarding B3, the binding result in data set [6] is on record as “no binding”.
